Here are results for one molecule from article PMC3832594, “The Neuroplastin Adhesion Molecules Are Accessory Proteins That Chaperone the Monocarboxylate Transporter MCT2 to the Neuronal Cell Surface” (PLoS ONE, 2013).

In this assay the target is T1, MCT2 tagged at its N-terminus with CFP (rat, UniProt Q63344 1-489).
T1 construct: Monocarboxylate transporter MCT2; also called MCT2-ECFP (N-terminal); MCT2-CFP; source: COS-7, transiently transfected (Fugene 6), in live cells; not shown: ECFP, N-terminal, kept
T1 sequence (looked up): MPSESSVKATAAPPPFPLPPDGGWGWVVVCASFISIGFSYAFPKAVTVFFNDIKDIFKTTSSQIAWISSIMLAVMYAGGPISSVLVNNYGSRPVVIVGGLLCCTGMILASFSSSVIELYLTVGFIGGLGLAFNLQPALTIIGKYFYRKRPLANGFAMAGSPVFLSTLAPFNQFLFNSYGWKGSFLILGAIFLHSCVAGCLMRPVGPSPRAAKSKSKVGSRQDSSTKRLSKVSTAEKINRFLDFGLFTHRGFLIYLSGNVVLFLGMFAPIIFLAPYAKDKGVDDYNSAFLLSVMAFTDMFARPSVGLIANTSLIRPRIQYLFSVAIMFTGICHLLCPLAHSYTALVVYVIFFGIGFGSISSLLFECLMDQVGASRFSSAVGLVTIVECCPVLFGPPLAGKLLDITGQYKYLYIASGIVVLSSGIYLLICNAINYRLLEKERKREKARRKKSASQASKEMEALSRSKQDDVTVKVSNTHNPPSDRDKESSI
Nature of the assay: FRET or BRET; live COS-7 cells co-transfected with MCT2-ECFP (N-terminal) and np55- or np65-EYFP (C-terminal), 48 h after transfection; 37°C, imaging buffer pH 7.4; ratio of emission at 480 nm to 530 nm on excitation at 430 nm (MCT2-CFP alone 1.33±0.016). The note with it: partners not purified.

B1: np65 C-terminally labelled with YFP (natural protein)
chain: not shown
notes: Neuroplastin np65, the form with 3 Ig domains; also called np65-EYFP (C-terminal); np65-YFP; source: COS-7, transiently transfected (Fugene 6), in live cells; not shown: EYFP, C-terminal, kept
As to B1, the “480:530 nm fluorescence emission ratio (FRET)” value was 0.792.
